Test results taken from article PMC9120031.

Molecular target: FLAG-tagged V-ATPase a3 subunit (full-length) (UniProt Q9JHF5)
Assay: co-IP; FLAG- and V5-tagged proteins co-expressed in HEK293T cells; lysed 48 h after transfection in IP buffer (1% Triton X-100, 10% glycerol, 50 mM Tris-HCl pH 7.4, 150 mM NaCl, 1 mM dithiothreitol, 1 mM EDTA); precipitated with anti-FLAG antibody; western blot with anti-V5 (or anti-A subunit) antibody

UniProt Q9JHF5, sequence (Q9JHF5 entry or part of it): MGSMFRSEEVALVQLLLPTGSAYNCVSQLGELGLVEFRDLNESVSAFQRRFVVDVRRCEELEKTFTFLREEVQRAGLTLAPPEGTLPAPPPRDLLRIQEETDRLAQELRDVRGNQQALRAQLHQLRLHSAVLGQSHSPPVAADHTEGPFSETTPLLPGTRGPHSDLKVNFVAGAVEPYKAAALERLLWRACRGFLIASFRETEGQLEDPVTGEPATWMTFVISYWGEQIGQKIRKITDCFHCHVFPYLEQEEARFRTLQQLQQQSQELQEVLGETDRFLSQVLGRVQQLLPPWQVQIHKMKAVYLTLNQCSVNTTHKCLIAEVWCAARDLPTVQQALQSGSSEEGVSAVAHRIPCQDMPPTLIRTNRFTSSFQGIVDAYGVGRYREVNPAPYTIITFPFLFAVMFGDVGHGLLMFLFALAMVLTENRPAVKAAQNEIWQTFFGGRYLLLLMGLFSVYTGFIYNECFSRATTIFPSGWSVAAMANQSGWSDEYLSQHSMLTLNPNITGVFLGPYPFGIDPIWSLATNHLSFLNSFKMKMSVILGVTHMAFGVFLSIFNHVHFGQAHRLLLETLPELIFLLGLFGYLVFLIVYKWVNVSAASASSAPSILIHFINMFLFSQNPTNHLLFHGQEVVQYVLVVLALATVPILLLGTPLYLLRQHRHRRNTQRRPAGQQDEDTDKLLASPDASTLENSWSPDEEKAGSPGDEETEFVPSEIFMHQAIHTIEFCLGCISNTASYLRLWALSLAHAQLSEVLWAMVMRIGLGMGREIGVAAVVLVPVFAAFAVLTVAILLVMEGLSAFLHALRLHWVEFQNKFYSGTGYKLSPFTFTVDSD

fold increase of Rab7 co-precipitated with a3 when V5-Mon1A and V5-Ccz1 were exogenously expressed, against without them: 3 fold
Substance: V5-tagged GDP-fixed form of Rab7(T22N) (from UniProt P51150 1-207) (natural protein)
